US20210155682A1, “COMPOSITIONS AND METHODS FOR REDUCTION OF LIPOPROTEIN A FORMATION AND TREATMENT OF AORTIC VALVE SCLEROSIS AND AORTIC STENOSIS” (Abcentra, LLC, priority 2018, published 2021)
“Also recorded” adds a separate entry of the source.

Experiments:
[1] = biological target: T1, Flu-LDL (Homo sapiens, UniProt P04114); test: Antibody interference with Flu-LDL fluorescence (Flu-LDL alone); conditions: Flu-LDL 100 nM; orticumab 0.1-1000 nM; FIG. 5
T1 construct: from tissue; host or cells: plasma of a healthy donor

[2] = biological target: T2, non-covalent binding between apo(a) and LDL (Homo sapiens, UniProt P04114); test: Fluorescence assay of non-covalent binding: quenching of Flu-LDL by 17K r-apo(a)
T2 construct: made in house; host or cells: apo(a): stably-expressing HEK293 cell lines; LDL: plasma of a healthy donor

[3] = biological target: T3, covalent binding between apo(a) and LDL (Lp(a) formation) (Homo sapiens, UniProt P04114); test: Covalent Lp(a) assembly assay, Western blot (% r-Lp(a)); format: biochemical; conditions: for percent inhibition of Lp(a) formation: FIG. 10; for Reduction of covalent Lp(a) compared with control antibodies: 4 hours, orticumab 0.01-10 μM, FIG. 8
T3 construct: made in house; host or cells: apo(a): stably-expressing HEK293 cell lines; LDL: plasma of a healthy donor
Procedure: Purified LDL (100 nM) and 17K apo(a) (5 nM) were incubated with conditioned serum-free medium (OptiMEM; Gibco) from HEK293 cells in the presence of 0, 0.01, 0.1, 1.0, and 10 μM of orticumab at 37° C. The reactions were mixed thoroughly every hour and stopped after 4 or 8 hrs by adding 4×SDS-PAGE sample buffer. Samples were then boiled for 5 min at 95° C. and subjected to SDS-PAGE on 6% polyacrylamide gel. After electrophoresis, separated proteins were electroblotted onto a PVDF membrane, blocked, and incubated with a monoclonal antibody (A5) specific for apo(a). HRP-conjugated goat anti-mouse IgG secondary antibody was used to develop a signal in the presence of a chemiluminescence reagent and images were captured using a ChemiDoc system (Bio-Rad). Band intensity (BI) of western-blots were quantified using IMAGELAB software for recombinant Lp(a) formation using the following equation: % r-Lp(a)=BI(Lp(a))/[BI(Lp(a))+BI(apo(a))]. A Two-Way ANOVA with Tukey post-hoc test was used to analyze the data in GraphPad Prism 7.0.
Covalent binding between apo(a) and LDL was assessed over time by appearance of Lp(a) protein on a Western blot. Using serum-free HEK293 cell-conditioned medium, Lp(a) formation was evaluated after incubation of 17K r-apo(a) with LDL from 0-8 hours; isolated Lp(a), 17K apo(a) alone, and media alone were used as controls.
Next, the effect of orticumab on inhibition of covalent binding between apo(a) and LDL was assessed by Western blot analysis. 17K r-apo(a) (5 nM) was incubated with LDL (100 nM) in serum free HEK293 cell-conditioned medium for 4 hours at 37° C. in the presence of orticumab at 0.1, 1, 5, and 10 μM.
To determine whether inhibition of Lp(a) formation occurs at a later time point when Lp(a) formation appears to be maximal, the Western blot experiments were repeated after a 0- and 8-hour incubation of 5 nM 17K r-apo(a) and 100 nM LDL in the presence of orticumab at 0.01, 0.1, 1, and 10 μM in serum free HEK293 cell-conditioned medium (FIG. 9). The results were then quantified (FIG. 10) and analyzed.

[4] = biological target: purified human LDL, carrying apolipoprotein B100 (human) (UniProt P04114); test: Western blot of covalent assembly of 5 nM 17K r-apo(a) with 100 nM LDL, 8 h
[5] = biological target: purified human LDL, carrying apolipoprotein B100 (human) (UniProt P04114); test: Western blot of covalent assembly of 5 nM 17K r-apo(a) with 100 nM LDL, 8 h, orticumab at '1' (unit missing, by context 1 µM)
[6] = biological target: purified human LDL, carrying apolipoprotein B100 (human) (UniProt P04114); test: Western blot of covalent assembly of 5 nM 17K r-apo(a) with 100 nM LDL, 8 h, 0.1 µM orticumab
[7] = biological target: purified human LDL, carrying apolipoprotein B100 (human) (UniProt P04114); test: Western blot of covalent assembly of 5 nM 17K r-apo(a) with 100 nM LDL, 8 h, 10 µM orticumab

T2 sequence (P04114 28-4563): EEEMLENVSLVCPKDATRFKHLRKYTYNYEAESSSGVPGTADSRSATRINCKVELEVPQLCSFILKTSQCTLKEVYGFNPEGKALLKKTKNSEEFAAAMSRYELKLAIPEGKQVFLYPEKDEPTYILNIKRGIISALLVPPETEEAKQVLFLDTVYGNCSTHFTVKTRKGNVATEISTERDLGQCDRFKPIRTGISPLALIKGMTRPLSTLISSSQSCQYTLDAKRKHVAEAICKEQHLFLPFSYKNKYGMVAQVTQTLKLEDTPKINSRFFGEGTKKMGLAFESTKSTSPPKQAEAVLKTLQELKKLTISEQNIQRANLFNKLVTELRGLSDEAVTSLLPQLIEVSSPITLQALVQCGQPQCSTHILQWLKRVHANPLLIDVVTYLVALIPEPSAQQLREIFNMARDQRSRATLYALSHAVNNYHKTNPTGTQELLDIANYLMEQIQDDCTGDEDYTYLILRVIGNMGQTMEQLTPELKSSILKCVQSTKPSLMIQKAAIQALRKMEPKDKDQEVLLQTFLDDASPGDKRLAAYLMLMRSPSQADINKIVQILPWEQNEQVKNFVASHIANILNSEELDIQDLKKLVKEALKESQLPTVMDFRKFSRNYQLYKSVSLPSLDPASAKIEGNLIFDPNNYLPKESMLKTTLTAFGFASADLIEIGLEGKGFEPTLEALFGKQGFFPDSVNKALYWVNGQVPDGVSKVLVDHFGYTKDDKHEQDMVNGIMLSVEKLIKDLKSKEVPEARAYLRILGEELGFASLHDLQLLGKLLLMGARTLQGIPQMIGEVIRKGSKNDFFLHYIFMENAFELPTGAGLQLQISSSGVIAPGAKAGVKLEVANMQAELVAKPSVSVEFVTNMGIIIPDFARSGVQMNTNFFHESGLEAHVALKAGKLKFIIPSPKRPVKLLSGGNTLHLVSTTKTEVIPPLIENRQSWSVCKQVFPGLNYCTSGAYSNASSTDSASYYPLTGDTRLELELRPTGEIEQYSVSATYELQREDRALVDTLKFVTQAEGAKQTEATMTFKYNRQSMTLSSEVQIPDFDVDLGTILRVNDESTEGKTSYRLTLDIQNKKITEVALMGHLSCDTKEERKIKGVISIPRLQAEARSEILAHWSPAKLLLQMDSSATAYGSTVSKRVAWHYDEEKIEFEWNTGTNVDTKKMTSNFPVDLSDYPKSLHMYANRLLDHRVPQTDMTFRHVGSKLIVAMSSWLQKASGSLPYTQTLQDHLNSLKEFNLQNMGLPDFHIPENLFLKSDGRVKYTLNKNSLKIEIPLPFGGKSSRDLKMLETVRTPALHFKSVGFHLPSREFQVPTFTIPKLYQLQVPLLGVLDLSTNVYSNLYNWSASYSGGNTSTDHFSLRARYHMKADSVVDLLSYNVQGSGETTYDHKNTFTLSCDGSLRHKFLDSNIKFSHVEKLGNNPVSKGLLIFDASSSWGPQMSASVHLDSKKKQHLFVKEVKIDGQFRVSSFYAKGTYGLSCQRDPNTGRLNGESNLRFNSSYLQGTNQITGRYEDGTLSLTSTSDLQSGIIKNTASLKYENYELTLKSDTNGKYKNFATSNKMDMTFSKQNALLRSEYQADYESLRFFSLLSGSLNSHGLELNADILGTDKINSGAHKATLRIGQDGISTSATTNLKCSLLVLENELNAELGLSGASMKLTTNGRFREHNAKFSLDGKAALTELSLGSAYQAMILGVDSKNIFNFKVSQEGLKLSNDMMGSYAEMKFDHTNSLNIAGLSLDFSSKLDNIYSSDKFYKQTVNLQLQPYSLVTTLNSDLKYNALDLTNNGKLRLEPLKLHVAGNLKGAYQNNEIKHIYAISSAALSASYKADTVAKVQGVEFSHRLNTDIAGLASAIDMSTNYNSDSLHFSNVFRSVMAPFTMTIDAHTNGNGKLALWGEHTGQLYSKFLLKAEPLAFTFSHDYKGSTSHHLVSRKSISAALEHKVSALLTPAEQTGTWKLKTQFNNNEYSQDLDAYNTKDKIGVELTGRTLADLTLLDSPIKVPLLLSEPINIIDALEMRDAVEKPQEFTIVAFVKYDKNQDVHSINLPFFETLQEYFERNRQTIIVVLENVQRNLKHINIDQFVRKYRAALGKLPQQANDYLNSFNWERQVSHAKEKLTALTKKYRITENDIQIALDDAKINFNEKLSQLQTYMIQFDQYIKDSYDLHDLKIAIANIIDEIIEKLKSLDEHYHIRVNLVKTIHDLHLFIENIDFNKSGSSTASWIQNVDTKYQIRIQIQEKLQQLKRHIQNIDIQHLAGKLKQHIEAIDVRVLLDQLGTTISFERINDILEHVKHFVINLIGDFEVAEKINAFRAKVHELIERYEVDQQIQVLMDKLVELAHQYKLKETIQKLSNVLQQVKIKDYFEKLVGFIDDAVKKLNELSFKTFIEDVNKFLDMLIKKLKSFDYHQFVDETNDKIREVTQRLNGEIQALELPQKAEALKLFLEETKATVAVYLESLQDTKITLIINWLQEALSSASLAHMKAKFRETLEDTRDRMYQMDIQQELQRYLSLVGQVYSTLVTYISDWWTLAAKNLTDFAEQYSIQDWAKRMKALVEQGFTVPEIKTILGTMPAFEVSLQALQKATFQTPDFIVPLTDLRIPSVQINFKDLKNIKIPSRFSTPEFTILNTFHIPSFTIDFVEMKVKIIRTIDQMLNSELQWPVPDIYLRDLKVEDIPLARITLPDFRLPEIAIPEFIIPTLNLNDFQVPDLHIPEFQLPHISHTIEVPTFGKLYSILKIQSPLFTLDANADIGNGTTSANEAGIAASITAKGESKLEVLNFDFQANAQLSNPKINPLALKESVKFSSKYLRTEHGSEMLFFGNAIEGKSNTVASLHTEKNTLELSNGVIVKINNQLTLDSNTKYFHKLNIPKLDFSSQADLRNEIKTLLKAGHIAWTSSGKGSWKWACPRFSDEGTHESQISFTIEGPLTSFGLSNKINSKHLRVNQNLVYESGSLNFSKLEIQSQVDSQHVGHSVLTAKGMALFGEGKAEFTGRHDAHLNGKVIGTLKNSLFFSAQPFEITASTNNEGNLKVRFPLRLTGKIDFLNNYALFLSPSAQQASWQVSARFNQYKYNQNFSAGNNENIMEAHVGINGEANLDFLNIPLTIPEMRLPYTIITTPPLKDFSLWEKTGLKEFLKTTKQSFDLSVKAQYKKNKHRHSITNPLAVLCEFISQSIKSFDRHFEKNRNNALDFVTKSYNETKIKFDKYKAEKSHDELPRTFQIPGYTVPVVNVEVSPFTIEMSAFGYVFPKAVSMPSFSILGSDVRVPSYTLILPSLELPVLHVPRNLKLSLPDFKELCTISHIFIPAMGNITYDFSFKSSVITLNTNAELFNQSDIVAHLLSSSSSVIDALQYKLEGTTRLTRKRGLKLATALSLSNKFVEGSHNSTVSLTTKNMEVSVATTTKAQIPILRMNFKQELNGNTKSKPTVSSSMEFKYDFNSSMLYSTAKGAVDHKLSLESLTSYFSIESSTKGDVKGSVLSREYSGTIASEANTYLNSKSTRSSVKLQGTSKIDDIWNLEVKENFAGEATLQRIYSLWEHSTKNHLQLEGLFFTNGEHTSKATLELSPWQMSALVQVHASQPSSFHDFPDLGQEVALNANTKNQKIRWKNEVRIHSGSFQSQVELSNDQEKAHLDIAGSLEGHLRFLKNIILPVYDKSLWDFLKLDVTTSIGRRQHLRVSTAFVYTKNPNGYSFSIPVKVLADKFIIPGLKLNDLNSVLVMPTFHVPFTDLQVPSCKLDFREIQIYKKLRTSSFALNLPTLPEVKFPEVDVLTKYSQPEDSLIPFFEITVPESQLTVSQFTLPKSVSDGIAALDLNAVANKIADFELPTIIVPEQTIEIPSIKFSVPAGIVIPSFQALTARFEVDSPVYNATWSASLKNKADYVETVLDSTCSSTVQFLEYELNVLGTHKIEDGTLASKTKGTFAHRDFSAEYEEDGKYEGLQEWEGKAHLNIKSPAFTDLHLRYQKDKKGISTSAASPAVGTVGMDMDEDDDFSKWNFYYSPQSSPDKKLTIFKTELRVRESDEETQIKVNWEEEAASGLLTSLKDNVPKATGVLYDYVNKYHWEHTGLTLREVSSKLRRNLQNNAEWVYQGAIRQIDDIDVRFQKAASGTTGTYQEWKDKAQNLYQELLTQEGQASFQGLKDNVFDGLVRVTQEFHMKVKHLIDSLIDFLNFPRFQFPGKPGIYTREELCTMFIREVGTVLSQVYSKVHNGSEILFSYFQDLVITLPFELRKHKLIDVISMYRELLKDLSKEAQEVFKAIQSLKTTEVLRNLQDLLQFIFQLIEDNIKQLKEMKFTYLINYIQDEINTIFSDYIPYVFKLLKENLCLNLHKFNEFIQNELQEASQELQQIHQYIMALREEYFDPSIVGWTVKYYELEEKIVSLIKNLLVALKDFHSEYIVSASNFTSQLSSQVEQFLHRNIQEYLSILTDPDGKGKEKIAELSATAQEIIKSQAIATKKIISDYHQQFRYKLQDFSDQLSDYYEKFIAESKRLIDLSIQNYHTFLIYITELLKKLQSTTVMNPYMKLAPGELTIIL
Sequence of purified human LDL, carrying apolipoprotein B100 (human) (P04114 28-4563): as above
T3 sequence (P04114 28-4563): as above
T1 sequence (P04114 28-4563): as above

| Substance | Effect on fluorescence of Flu-LDL alone [1] | Concentration at which the antibody interfered with fluorescence ([2]; Flu-LDL 30 nM, 17K r-apo(a) 300 nM, FIG. 4A) [nM] | Concentration of maximum response in dose-response titration ([2]; de-quenching of Flu-LDL fluorescence, FIG. 3) [nM] | Inhibition of non-covalent binding between apo(a) and LDL, overall statement ([2]; fluorescence assay, summary of Example 3) | Alleviation of quenching of Flu-LDL by 17K apo(a), antibody titration ([2]; orticumab 0-1000 nM, Flu-LDL 50 nM, 17K r-apo(a) 500 nM, FIG. 3) | Inhibition of non-covalent apo(a)/Flu-LDL binding in 17K apo(a) titration ([2]; orticumab 1000 nM, Flu-LDL 50 nM, 17K r-apo(a) 0-1000 nM, FIG. 2) | De-quenching of Flu-LDL fluorescence at lower concentrations ([2]; orticumab 0.4096-100 nM, Flu-LDL 30 nM, 17K r-apo(a) 300 nM, FIG. 4A) | percent inhibition of Lp(a) formation ([3]; 0.01 μM orticumab, 8-hour incubation, 17K r-apo(a) 5 nM, LDL 100 nM) [%] | percent inhibition of Lp(a) formation ([3]; 0.1 μM orticumab, 8-hour incubation, 17K r-apo(a) 5 nM, LDL 100 nM) [%] | percent inhibition of Lp(a) formation ([3]; 10 μM orticumab, 8-hour incubation, 17K r-apo(a) 5 nM, LDL 100 nM) [%] | Lp(a) band on Western blot ([3]; 10 μM orticumab, 4 hours at 37° C., 17K r-apo(a) 5 nM, LDL 100 nM, FIG. 7) | Inhibition of Lp(a) formation, in words ([3]; 8-hour incubation, orticumab 0.01, 0.1, 1 and 10 μM, FIG. 9, 10) | Reduction of covalent Lp(a) compared with control antibodies ([3]; 17K r-apo(a) 5 nM, LDL 100 nM) | Reduction of covalent Lp(a) compared with control antibodies ([3]; 17K r-apo(a) 5 nM, LDL 100 nM, listed as Orticumab) | Inhibition of covalent binding between apo(a) and LDL, overall statement ([3]; orticumab 0.01, 0.1, 1 and 10 μM, Western blot) | percent inhibition of Lp(a) formation ([3]; orticumab "At 1" (unit not given), 8-hour incubation, 17K r-apo(a) 5 nM, LDL 100 nM) [%] | percent inhibition of Lp(a) formation [4] [%] | percent inhibition of Lp(a) formation [5] [%] | percent inhibition of Lp(a) formation [6] [%] | percent inhibition of Lp(a) formation [7] [%] |
| --- | --- | --- | --- | --- | --- | --- | --- | --- | --- | --- | --- | --- | --- | --- | --- | --- | --- | --- | --- | --- |
| orticumab: human monoclonal antibody against apoB100 epitope P45 (residues 661-680); heavy chain SEQ ID No: 10, light chain SEQ ID No: 11 | increased the fluorescence of Flu-LDL to a higher level; also recorded: enhanced fluorescent signal | ≤ 0.4 | 1000 | very effective in inhibiting non-covalent binding | able to alleviate the quenching; also recorded: much lower than that of the polyclonal anti-apoB antibody or EACA | inhibited the binding; also recorded: on par with the anti-apo(a) antibody; also recorded: interfered with the apo(a) and Flu-LDL interaction | not able to de-quench; also recorded: no effect on de-quenching the fluorescence | 21.37 | 25.8 | 73.46 | Disappearance of the Lp(a) band | significantly inhibited Lp(a) formation; also recorded: decreased Lp(a) covalent assembly at the lowest concentration tested | behaves similarly in reducing covalent Lp(a) | as effective as the anti-apoB or anti-apo(a) control antibodies | inhibited | 34.99 | – | – | – | – |
| orticumab (antibody) | – | – | – | – | – | – | – | – | – | – | – | – | – | – | – | – | 21.4 | 35 | 25.8 | 73.5 |
